Source: publication PMC3673938, “Two Distinct Calmodulin Binding Sites in the Third Intracellular Loop and Carboxyl Tail of Angiotensin II (AT1A) Receptor” (PLoS ONE, 2013)

B1: GST-ATctN(297–324) (domain or fragment)
chain: LNPLFYGFLGKKFKKYFLQLLKYIPPKA
notes: N-terminal part of the carboxyl tail of the AT1A receptor, amino acids 297–324; stop codon after 324A in GST-ATct(297–359); also called GST-N-terminus of carboxyl tail; source: E. coli BL21, purified (glutathione sepharose 4B); not shown: GST, N-terminal, kept
B2: ATi3(214–231) peptide (peptide)
peptide: SYTLIWKALKKAYEIQKN
notes: also called 1–12 motif peptide of the i3 loop; source: synthetic peptide (MUSC Proteogenomics Facility, HPLC purified)
B3: ATct(302–317) peptide (peptide)
peptide: YGFLGKKFKKYFLQLL
notes: also called 1-5-10 motif peptide of the carboxyl tail; source: synthetic peptide (MUSC Proteogenomics Facility, HPLC purified)
B4: ATct(302–317)F313A peptide (peptide)
peptide: YGFLGKKFKKYALQLL
notes: AT1A receptor carboxyl tail, amino acids 302–317, with F313A; source: synthetic peptide (MUSC Proteogenomics Facility, HPLC purified)
B5: ATct(302–317)F309A peptide (peptide)
peptide: YGFLGKKAKKYFLQLL
notes: AT1A receptor carboxyl tail, amino acids 302–317, with F309A; source: synthetic peptide (MUSC Proteogenomics Facility, HPLC purified)
B6: GST-ATi3N(213–234) (domain or fragment)
chain: TSYTLIWKALKKAYEIQKNKPR
notes: also called GST-N-terminus of the i3 loop; source: E. coli BL21, purified (glutathione sepharose 4B); not shown: GST, N-terminal, kept
B7: GST-ATi3(213–242) (domain or fragment)
chain: TSYTLIWKALKKAYEIQKNKPRNDDIFRII
notes: amplified from pcDNA3.1-AT1A receptor; cloned in pGEX-4T-1 at BamH I and EcoR I downstream of GST; also called GST-i3 loop; i3 loop of the AT1A receptor; source: E. coli BL21, purified (glutathione sepharose 4B); not shown: GST, N-terminal, kept

Tests used:
Conditions in all cases: both partners purified
[1] = target: T1, calmodulin purified from bovine brain (bovine, UniProt P62157 1-149); assay: pull-down; 50 pmol GST-fusion protein with purified bovine brain CaM (50 pmol) in 250 µl of 100 mM Tris-HCl pH 7.5 with 0.1 mM CaCl2; 4°C; glutathione-sepharose 4B beads; immunoblot with anti-CaM; for the mutants density of CaM against loaded GST-fusion protein
T1 construct: calmodulin, bovine brain; also called CaM; pure bovine brain CaM; source: purified from bovine brain; bought: Calbiochem

[2] = target: T2, dansyl-calmodulin (bovine brain) (bovine, UniProt P62157 1-149, dansyl (0.18–0.34 mol of dansyl moiety per mol of CaM), site not stated); assay: other fluorescence titration; peptides (25–2000 nM) with 147 nM dansyl-CaM, 0.1 mM calcium, 1 hour at room temperature; emission at 485 nm; apparent dissociation constants
T2 construct: calmodulin, bovine brain, dansylated; also called dansyl-CaM; source: CaM purified from bovine brain (bought: Calbiochem), labelled with dansyl chloride

[3] = target: T2, dansyl-calmodulin (bovine brain); assay: dansyl-CaM fluorescence emission spectrum; 106 nM dansyl-CaM, 500 nM peptide, 0.1 mM calcium, 1 hour at room temperature; excitation 340 nm, emission 425–600 nm; compared with dansyl-CaM in 10 mM EGTA

Binder | binding result [1] | Kd [2] | further results
B1 | binds | – | –
B2 | – | 177 nM | fold increase in dansyl-CaM fluorescence intensity at 486 nm (500 nM peptide) [3]: ~3.2 fold
B3 | – | 79.4 nM | fold increase in dansyl-CaM fluorescence intensity at 482 nm (500 nM peptide) [3]: ~3.5 fold
B4 | – | 388 nM | –
B5 | – | 308 nM | –
B6 | binds | – | –
B7 | binds | – | –
